The text below walks through data of paper PMC3085011 (2011).

The target of the assay is T1, CNA1 (Saccharomyces cerevisiae, UniProt P23287).
T1 chain: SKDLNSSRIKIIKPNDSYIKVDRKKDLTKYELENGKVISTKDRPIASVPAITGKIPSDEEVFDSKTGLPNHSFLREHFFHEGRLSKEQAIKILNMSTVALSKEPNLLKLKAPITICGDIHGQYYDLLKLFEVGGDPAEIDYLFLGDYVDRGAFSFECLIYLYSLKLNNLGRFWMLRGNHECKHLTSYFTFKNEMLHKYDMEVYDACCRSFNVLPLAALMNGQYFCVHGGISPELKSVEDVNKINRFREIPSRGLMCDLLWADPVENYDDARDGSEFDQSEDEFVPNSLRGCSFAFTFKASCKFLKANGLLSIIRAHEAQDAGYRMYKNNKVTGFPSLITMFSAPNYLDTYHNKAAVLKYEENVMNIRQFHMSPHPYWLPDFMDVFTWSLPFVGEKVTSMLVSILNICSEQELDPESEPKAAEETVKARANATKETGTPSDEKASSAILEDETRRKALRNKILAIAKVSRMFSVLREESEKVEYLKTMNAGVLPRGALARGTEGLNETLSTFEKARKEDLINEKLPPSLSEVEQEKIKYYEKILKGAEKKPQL
Nature of the assay: SPROX.

B1: CPR1 (protein)
chain: not shown
modifications: cyclosporin A
As for B1, the Kd (commonly the concentration at which binding is half-saturated) came out at 120 nM.
